Experimental findings from publication PMC5490006 (Nature Communications, 2017) are described below.

The target of one assay is T1, Mcm6 (budding yeast, UniProt P53091 1-1017).
T1 construct: Mcm6, subunit of the budding yeast MCM (Mcm2-7), expressed as an individual subunit; called Mcm6 fl and the full-length protein; also called Mcm6 fl; full-length Mcm6; source: E. coli, purified
The experiment in a line: pull-down; Cdt1 FLAG held on M2 anti-FLAG agarose, Mcm6 fl or ΔC in solution; 10 μg of each protein, buffer B, 60 min at 4 °C; eluted with FLAG peptide; Coomassie. Conditions: both partners purified.

Assay [1] concerns the target T2, Mcm6 within purified Cdt1–MCM complexes (budding yeast, UniProt P53091 1-1017).
T2 construct: Mcm6, yeast MCM subunit, as part of the Cdt1-MCM complex; source: purified Cdt1-MCM complex
The experiment in a line: cross-linking; MCM-Cdt1 FLAG complex (200 μg) crosslinked with 20, 50 and 100 μM BS3; denatured with SDS; denaturing anti-FLAG immunoprecipitation; silver staining, bands identified by immunoblotting and mass spectrometry. Conditions: both partners purified. For orientation: A western blot detects proteins with antibodies after separation by electrophoresis.

T2 sequence (P53091 whole entry, one chain of several): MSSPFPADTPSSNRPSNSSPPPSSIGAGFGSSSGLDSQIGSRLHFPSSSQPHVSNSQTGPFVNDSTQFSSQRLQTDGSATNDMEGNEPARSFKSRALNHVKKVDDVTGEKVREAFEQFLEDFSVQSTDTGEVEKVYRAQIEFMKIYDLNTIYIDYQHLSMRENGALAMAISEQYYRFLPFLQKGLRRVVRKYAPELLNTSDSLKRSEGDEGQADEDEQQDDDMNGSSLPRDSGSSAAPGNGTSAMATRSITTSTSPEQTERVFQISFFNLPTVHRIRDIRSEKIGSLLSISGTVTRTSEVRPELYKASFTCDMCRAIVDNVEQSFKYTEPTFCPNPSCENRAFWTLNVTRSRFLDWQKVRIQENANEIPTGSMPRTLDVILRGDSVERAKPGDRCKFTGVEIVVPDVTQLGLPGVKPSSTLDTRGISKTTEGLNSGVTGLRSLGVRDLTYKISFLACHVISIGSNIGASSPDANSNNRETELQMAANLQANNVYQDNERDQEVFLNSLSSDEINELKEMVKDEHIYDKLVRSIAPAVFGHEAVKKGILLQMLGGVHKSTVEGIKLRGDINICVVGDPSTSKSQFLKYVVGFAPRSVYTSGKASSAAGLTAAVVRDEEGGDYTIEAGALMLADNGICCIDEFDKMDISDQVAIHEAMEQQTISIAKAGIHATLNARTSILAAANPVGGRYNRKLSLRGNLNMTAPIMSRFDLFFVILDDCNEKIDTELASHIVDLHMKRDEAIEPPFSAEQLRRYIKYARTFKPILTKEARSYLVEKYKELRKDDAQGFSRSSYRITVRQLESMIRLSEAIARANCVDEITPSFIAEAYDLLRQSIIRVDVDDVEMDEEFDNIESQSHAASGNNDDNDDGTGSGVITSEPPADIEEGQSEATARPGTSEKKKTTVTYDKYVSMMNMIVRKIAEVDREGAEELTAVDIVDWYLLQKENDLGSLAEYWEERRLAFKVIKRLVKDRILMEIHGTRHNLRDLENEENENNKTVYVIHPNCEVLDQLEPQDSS
T1 sequence (P53091 whole entry): as the sequence (P53091 whole entry, one chain of several) above

B1: Cdt1 FLAG (natural protein, S. cerevisiae, UniProt P47112 1-604, looked up)
chain: MSGTANSRRKEVLRVPVIDLNRVSDEEQLLPVVRAILLQHDTFLLKNYANKAVLDALLAGLTTKDLPDTSQGFDANFTGTLPLEDDVWLEQYIFDTDPQLRFDRKCRNESLCSIYSRLFKLGLFFAQLCVKSVVSSAELQDCISTSHYATKLTRYFNDNGSTHDGADAGATVLPTGDDFQYLFERDYVTFLPTGVLTIFPCAKAIRYKPSTMATTDNSWVSIDEPDCLLFHTGTLLARWSQGMHTTSPLQIDPRANIVSLTIWPPLTTPISSKGEGTIANHLLEQQIKAFPKVAQQYYPRELSILRLQDAMKFVKELFTVCETVLSLNALSRSTGVPPELHVLLPQISSMMKRKIVQDDILKLLTIWSDAYVVELNSRGELTMNLPKRDNLTTLTNKSRTLAFVERAESWYQQVIASKDEIMTDVPAFKINKRRSSSNSKTVLSSKVQTKSSNANALNNSRYLANSKENFMYKEKMPDSQANLMDRLRERERRSAALLSQRQKRYQQFLAMKMTQVFDILFSLTRGQPYTETYLSSLIVDSLQDSNNPIGTKEASEILAGLQGILPMDISVHQVDGGLKVYRWNSLDKNRFSKLLQIHKSKQQD
notes: Cdt1, S. cerevisiae, FLAG-tagged; also called FLAG-tagged Cdt1; source: purified; alone for the pull-downs, within the MCM-Cdt1 FLAG complex for the crosslinking
As for B1, the binding result (in the assay with Mcm6; in assay [1]) was “binds” throughout.
